Measurements taken from article PMC11592734.
pKd: −log10 of the molar value.

How the values were obtained:
[1] = biological target: whole-length cardiac myosin isolated from mice hearts (mouse) (UniProt Q91Z83); experiment: co-sedimentation; whole-length cardiac myosin (10 µM) incubated with increasing concentration (0-10 µM) of hC0-C2; Michaelis-Menten binding fit
[2] = biological target: wild-type recombinant human cMyBP-C C0-C2 region (hC0-C2^WT) (human); experiment: ITC; 20 µM hC0-C2 titrated against 350 µM hS2; n = 3
[3] = biological target: wild-type recombinant human cMyBP-C C0-C2 region (hC0-C2^WT) (human); experiment: solid-phase binding assay; 20 µM hC0-C2 incubated with increasing concentrations of hS2 (0-20 µM); binding of hS2 read by fluorescence intensity; Michaelis-Menten binding fit; n = 3
[4] = biological target: recombinant human cMyBP-C C0-C2 region with D389V (hC0-C2^D389V) (human); experiment: as above

Chain of UniProt Q91Z83 (Q91Z83 whole entry, chain 1 of 3): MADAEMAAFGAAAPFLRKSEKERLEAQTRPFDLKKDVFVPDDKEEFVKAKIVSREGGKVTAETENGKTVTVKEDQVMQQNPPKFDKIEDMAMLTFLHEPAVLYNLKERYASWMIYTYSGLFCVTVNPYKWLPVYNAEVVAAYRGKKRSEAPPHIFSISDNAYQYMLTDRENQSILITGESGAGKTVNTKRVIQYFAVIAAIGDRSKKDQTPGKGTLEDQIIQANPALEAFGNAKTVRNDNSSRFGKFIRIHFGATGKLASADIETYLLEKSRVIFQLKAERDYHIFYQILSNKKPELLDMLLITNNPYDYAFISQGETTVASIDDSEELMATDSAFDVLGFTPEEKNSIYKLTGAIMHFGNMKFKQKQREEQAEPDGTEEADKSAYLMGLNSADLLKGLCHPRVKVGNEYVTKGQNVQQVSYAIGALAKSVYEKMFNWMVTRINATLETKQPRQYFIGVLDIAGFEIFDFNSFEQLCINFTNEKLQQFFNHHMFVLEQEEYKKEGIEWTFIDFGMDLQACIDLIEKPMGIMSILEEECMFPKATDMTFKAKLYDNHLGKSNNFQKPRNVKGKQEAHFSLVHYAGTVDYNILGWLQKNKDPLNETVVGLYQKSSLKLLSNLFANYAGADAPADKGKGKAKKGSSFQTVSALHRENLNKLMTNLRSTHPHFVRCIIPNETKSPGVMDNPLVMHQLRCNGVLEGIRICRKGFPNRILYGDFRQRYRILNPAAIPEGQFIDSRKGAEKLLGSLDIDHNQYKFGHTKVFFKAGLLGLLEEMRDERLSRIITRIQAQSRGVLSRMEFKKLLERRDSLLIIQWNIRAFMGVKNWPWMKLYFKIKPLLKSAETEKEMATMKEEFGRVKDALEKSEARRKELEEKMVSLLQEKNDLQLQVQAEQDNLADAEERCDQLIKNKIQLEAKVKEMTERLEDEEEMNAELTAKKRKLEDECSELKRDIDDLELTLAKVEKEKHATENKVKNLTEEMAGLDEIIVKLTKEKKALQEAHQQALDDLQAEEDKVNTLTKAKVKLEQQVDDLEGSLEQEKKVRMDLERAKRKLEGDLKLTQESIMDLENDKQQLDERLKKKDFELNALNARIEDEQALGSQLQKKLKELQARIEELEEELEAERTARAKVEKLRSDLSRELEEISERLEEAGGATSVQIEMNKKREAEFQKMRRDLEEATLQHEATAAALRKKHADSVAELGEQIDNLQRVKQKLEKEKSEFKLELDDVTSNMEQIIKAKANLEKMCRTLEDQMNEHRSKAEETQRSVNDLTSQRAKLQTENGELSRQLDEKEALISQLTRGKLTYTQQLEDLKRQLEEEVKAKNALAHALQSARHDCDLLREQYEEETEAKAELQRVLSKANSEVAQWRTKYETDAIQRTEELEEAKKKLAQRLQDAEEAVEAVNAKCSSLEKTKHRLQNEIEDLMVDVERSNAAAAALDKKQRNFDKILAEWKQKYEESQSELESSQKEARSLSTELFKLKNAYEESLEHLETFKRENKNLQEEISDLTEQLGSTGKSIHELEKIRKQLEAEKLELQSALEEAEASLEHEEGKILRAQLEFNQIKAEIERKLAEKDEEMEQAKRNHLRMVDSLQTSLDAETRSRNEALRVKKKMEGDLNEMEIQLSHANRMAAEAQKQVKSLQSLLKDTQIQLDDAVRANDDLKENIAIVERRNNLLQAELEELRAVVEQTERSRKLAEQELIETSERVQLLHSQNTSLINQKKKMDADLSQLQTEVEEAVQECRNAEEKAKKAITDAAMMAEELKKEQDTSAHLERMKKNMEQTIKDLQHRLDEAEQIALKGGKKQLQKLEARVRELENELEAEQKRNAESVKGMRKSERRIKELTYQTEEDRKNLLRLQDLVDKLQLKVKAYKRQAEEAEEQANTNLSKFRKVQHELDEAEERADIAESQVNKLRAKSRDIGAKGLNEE
Chain of UniProt Q91Z83 (P09542 2-204, chain 2 of 3, further chain): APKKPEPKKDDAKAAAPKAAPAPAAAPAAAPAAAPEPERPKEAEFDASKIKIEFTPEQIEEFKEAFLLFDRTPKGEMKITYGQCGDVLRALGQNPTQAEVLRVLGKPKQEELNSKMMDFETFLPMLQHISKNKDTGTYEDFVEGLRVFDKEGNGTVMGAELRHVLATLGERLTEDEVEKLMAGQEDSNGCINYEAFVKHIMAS
Chain of UniProt Q91Z83 (P51667 2-166, chain 3 of 3, further chain): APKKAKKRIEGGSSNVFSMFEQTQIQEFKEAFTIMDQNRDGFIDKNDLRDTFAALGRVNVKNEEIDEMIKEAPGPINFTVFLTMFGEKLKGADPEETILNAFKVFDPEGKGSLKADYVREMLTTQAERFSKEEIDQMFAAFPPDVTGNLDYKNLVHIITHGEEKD

## recombinant human cMyBP-C C0-C2 region with D389V (hC0-C2^D389V) (domain or fragment)
[1]
  pKd: 6.05

## recombinant proximal (126 residues) human myosin S2 (hS2) (domain or fragment)
[2]
  stoichiometry N: 0.96
[3]
  pKd: 5.31
[4]
  pKd: 5.33

## wild-type recombinant human cMyBP-C C0-C2 region (hC0-C2^WT) (domain or fragment)
[1]
  pKd: 6.08
